The results in this text go back to the RNAGym collection of RNA variant scans (doi:10.7554/elife.80360).

First the molecules themselves.
B1: Hairpin Ribozyme (parent)
chain: GUCCUCUUUCACGUGCGCGUGAAAGAGAGAAGUGAACCAGAGAAACACACGUUGUGGUAUAUUACCUGGUA

Variants of B1 are the subject of this series. Put plainly: self-cleavage, relative activity (ratio to wild type); higher = more cleavage; co-transcriptional.
On to GUCCUCUUUCACGUGCGCGUGAUAGAGAGAAGUGAACCAGAGAAACACACGUUGUGGUAUAUUACCUGGGA, for which the self-cleavage came to 0.647. For GUCCUCUUUCACGUGCGCGUGAACGAGAGAAGUGAACCGGAGAAACACACGUUGUGGUAUAUUACCUGGUA, the self-cleavage came to 0.28.

GUCCUCUUUCACGUGCGCGUGAACGAGAGAAGUGAACCAGAGAAACACACAUUGUGGUAUAUUACCUGGUA: the self-cleavage came out at 0.932. The figure for GUCCUCUUUCACGUGCGCGUGAACGAGAGAAGUGAACCAGAGAAACACACCUUGUGGUAUAUUACCUGGUA is 0.77; for GUCCUCUUUCACGUGCGCGUGAACGAGAGAAGUGAACCAGAGAGACACACGUUGUGGUAUAUUACCUGGUA it is 0.104; for GUCCUCUUUCACGUGCGCGUGAAGGAGAGAAGUGAACCAGAGAAACUCACGUUGUGGUAUAUUACCUGGUA it is 0.0569. As for GUCCUCUUUCACGUGCGCGUGAACGAGAGAAGUGAACCAAAGAAACACACGUUGUGGUAUAUUACCUGGUA, the self-cleavage came out at 0.335. In the case of GUCCUCUUUCACGUGCGCGUGAACGAGAGAAGUGAACCACAGAAACACACGUUGUGGUAUAUUACCUGGUA, the self-cleavage is 0.185. The figure for GUCCUCUUUCACGUGCGCGUGAACGAGAGAAGUGUACCAGAGAAACACACGUUGUGGUAUAUUACCUGGUA is 0.938; for GUCCUCUUUCACGUGCGCGUGAACGAGAGAAGCGAACCAGAGAAACACACGUUGUGGUAUAUUACCUGGUA it is 0.16; for GUCCUCUUUCACGUGCGCGUGAAGGAGAGAAGUGAACCAGAGAAACACACGUUGUGGUAUAUUCCCUGGUA it is 0.17.

As to GUCCUCUUUCACGUGCGCGUGAAGGAGAGAAGUGAACCAGAGAAACACACGUUGUGGUAUGUUACCUGGUA, the self-cleavage is 0.254.

With GUCCUCUUUCACGUGCGCGUGAAGGAGAGAAGUGAACCAGCGAAACACACGUUGUGGUAUAUUACCUGGUA, the self-cleavage came out at 0.743. Next, GUCCUCUUUCACGUGCGCGUGAACGAGAGAAGUGAACCAGAGAAACACACGUUGUGGUAUAUAACCUGGUA: 0.0496; GUCCUCUUUCACGUGCGCGUGAACGAGAGAAGUGAACCAGAGAAACACACGUUGUGGUAUAUGACCUGGUA: 0.0877; GUCCUCUUUCACGUGCGCGUGAACGAGAGAAGUGAACCAGAGAAAUACACGUUGUGGUAUAUUACCUGGUA: 0.142.

On to GUCCUCUUUCACGUGCGCGUGAACGAGAGAAGUGAACCAGAGAAAGACACGUUGUGGUAUAUUACCUGGUA, for which the self-cleavage was found to be 0.105. The figure for GUCCUCUUUCACGUGCGCGUGAACGAGAGAAGUGAACCAGAGAAAAACACGUUGUGGUAUAUUACCUGGUA is 0.134; for GUCCUCUUUCACGUGCGCGUGAACGAGAGAAGUGAACCAGAGAAACACCCGUUGUGGUAUAUUACCUGGUA it is 0.308. The figure for GUCCUCUUUCACGUGCGCGUGAACGAGAGACGUGAACCAGAGAAACACACGUUGUGGUAUAUUACCUGGUA is 0.209; for GUCCUCUUUCACGUGCGCGUGAACGAGAGAUGUGAACCAGAGAAACACACGUUGUGGUAUAUUACCUGGUA it is 0.107; for GUCCUCUUUCACGUGCGCGUGAAGGAGAGAAGUGAACCAGAGAAAUACACGUUGUGGUAUAUUACCUGGUA it is 0.0984. On to GUCCUCUUUCACGUGCGCGUGAACGAGAGAAGUGAACCAGAGAAACACAAGUUGUGGUAUAUUACCUGGUA, for which the self-cleavage was found to be 0.103.

On to GUCCUCUUUCACGUGCGCGUGAACGAGAGAAGUGAACCAGAGAAACACAUGUUGUGGUAUAUUACCUGGUA, for which the self-cleavage was determined as 0.418. The figure for GUCCUCUUUCACGUGCGCGUGAACGAGAGAAGUGAACCAGAGAAACACACGUUGUGGUACAUUACCUGGUA is 0.972. GUCCUCUUUCACGUGCGCGUGAACGAGAGAAGUGAACCAGAGAAACACACGUUGUGGUAGAUUACCUGGUA: the self-cleavage is 0.609. The figure for GUCCUCUUUCACGUGCGCGUGAACGAGAGAAGUGAACCAGAGAAACACACGUUGUGGUAAAUUACCUGGUA is 0.76; for GUCCUCUUUCACGUGCGCGUGAACGAGAGAAGUGAACCAGAGAAACAAACGUUGUGGUAUAUUACCUGGUA it is 0.172; for GUCCUCUUUCACGUGCGCGUGAAGGAGAGAAGUGAACCAGAGAAACACACGUUGUGGUAUAUUACCUGGUC it is 1.4.

Regarding GUCCUCUUUCACGUGCGCGUGAACGAGAGAAGUGAACCAGAGAAACACACGUUGUGGUAUAUUUCCUGGUA, the self-cleavage stood at 0.172. With GUCCUCUUUCACGUGCGCGUGAACGAGAGAAGUGAACCAGAGAAACACACGUUGUGGUAUAUUACCCGGUA, the self-cleavage was found to be 0.208.

Regarding GUCCUCUUUCACGUGCGCGUGAACGAGAGAAGUGAACCAGAGAAACACACGUUGUGGUAUAUUAACUGGUA, the self-cleavage was 0.922. Next, GUCCUCUUUCACGUGCGCGUGAACGAGAGAAGUGAACCAGAGAAACACACGUUGUGGUAUAUUAGCUGGUA: 0.296; GUCCUCUUUCACGUGCGCGUGAACGAGAGAAGUGAACCAGAGAAACACACGUUGUGGUAUAUUAUCUGGUA: 0.402; GUCCUCUUUCACGUGCGCGUGAACGAGAGAAGUGAACCAGAGAAACACACGUUGUGGUAUAUUACCUGCUA: 0.218. GUCCUCUUUCACGUGCGCGUGAACGAGAGAAGUGAACCAGAGAAACACACGUUGUGGUAUAUUACCUGAUA: the self-cleavage was determined as 0.484. In the case of GUCCUCUUUCACGUGCGCGUGAACGAGAGAAGUGAACCAGAGAAACACACGUUGUGAUAUAUUACCUGGUA, the self-cleavage was determined as 0.24. With GUCCUCUUUCACGUGCGCGUGAACGAGAGAAGUGAACCAGAGAAACACACGUUGUGGUAUAUUACGUGGUA, the self-cleavage was found to be 0.0731.
